Measured values: publication PMC11574045, “A cofactor-induced repressive type of transcription factor condensation can be induced by synthetic peptides to suppress tumorigenesis” (The EMBO Journal, 2024)

B1: RNF2 (protein, UniProt Q99496 2-336, looked up)
E3 ubiquitin-protein ligase …: SQAVQTNGTQPLSKTWELSLYELQRTPQEAITDGLEIVVSPRSLHSELMCPICLDMLKNTMTTKECLHRFCADCIITALRSGNKECPTCRKKLVSKRSLRPDPNFDALISKIYPSRDEYEAHQERVLARINKHNNQQALSHSIEEGLKIQAMNRLQRGKKQQIENGSGAEDNGDSSHCSNASTHSNQEAGPSNKRTKTSDDSGLELDNNNAAMAIDPVMDGASEIELVFRPHPTLMEKDDSAQTRYIKTSGNATVDHLSKYLAVRLALEELRSKGESNQMNLDTASEKQYTIYIATASGQFTVLNGSFSLELVSEKYWKVNKPMELYYAPTKEHK
B2: RNF6 (protein, UniProt Q9Y252 1-685, looked up)
E3 ubiquitin-protein ligase …: MNQSRSRSDGGSEETLPQDHNHHENERRWQQERLHREEAYYQFINELNDEDYRLMRDHNLLGTPGEITSEELQQRLDGVKEQLASQPDLRDGTNYRDSEVPRESSHEDSLLEWLNTFRRTGNATRSGQNGNQTWRAVSRTNPNNGEFRFSLEIHVNHENRGFEIHGEDYTDIPLSDSNRDHTANRQQRSTSPVARRTRSQTSVNFNGSSSNIPRTRLASRGQNPAEGSFSTLGRLRNGIGGAAGIPRANASRTNFSSHTNQSGGSELRQREGQRFGAAHVWENGARSNVTVRNTNQRLEPIRLRSTSNSRSRSPIQRQSGTVYHNSQRESRPVQQTTRRSVRRRGRTRVFLEQDRERERRGTAYTPFSNSRLVSRITVEEGEESSRSSTAVRRHPTITLDLQVRRIRPGENRDRDSIANRTRSRVGLAENTVTIESNSGGFRRTISRLERSGIRTYVSTITVPLRRISENELVEPSSVALRSILRQIMTGFGELSSLMEADSESELQRNGQHLPDMHSELSNLGTDNNRSQHREGSSQDRQAQGDSTEMHGENETTQPHTRNSDSRGGRQLRNPNNLVETGTLPILRLAHFFLLNESDDDDRIRGLTKEQIDNLSTRHYEHNSIDSELGKICSVCISDYVTGNKLRQLPCMHEFHIHCIDRWLSENCTCPICRQPVLGSNIANNG
B3: BATF3 (protein, UniProt Q9NR55 1-127, looked up)
Basic leucine zipper …: MSQGLPAAGSVLQRSVAAPGNQPQPQPQQQSPEDDDRKVRRREKNRVAAQRSRKKQTQKADKLHEEYESLEQENTMLRREIGKLTEELKHLTEALKEHEKMCPLLLCPMNFVPVPPRPDPVAGCLPR
B4: ROG (protein, UniProt Q9Y2Y4 1-487, looked up)
Zinc finger and BTB …: MSLPPIRLPSPYGSDRLVQLAARLRPALCDTLITVGSQEFPAHSLVLAGVSQQLGRRGQWALGEGISPSTFAQLLNFVYGESVELQPGELRPLQEAARALGVQSLEEACWRARGDRAKKPDPGLKKHQEEPEKPSRNPERELGDPGEKQKPEQVSRTGGREQEMLHKHSPPRGRPEMAGATQEAQQEQTRSKEKRLQAPVGQRGADGKHGVLTWLRENPGGSEESLRKLPGPLPPAGSLQTSVTPRPSWAEAPWLVGGQPALWSILLMPPRYGIPFYHSTPTTGAWQEVWREQRIPLSLNAPKGLWSQNQLASSSPTPGSLPQGPAQLSPGEMEESDQGHTGALATCAGHEDKAGCPPRPHPPPAPPARSRPYACSVCGKRFSLKHQMETHYRVHTGEKPFSCSLCPQRSRDFSAMTKHLRTHGAAPYRCSLCGAGCPSLASMQAHMRGHSPSQLPPGWTIRSTFLYSSSRPSRPSTSPCCPSSSTT
B5: RSF1 (protein, UniProt Q96T23 1-1441, looked up)
Remodeling and spacing factor …: MATAAAAAAVMAPPGCPGSCPNFAVVCSFLERYGPLLDLPELPFPELERVLQAPPPDVGNGEVPKELVELHLKLMRKIGKSVTADRWEKYLIKICQEFNSTWAWEMEKKGYLEMSVECKLALLKYLCECQFDDNLKFKNIINEEDADTMRLQPIGRDKDGLMYWYQLDQDHNVRMYIEEQDDQDGSSWKCIVRNRNELAETLALLKAQIDPVLLKNSSQQDNSSRESPSLEDEETKKEEETPKQEEQKESEKMKSEEQPMDLENRSTANVLEETTVKKEKEDEKELVKLPVIVKLEKPLPENEEKKIIKEESDSFKENVKPIKVEVKECRADPKDTKSSMEKPVAQEPERIEFGGNIKSSHEITEKSTEETEKLKNDQQAKIPLKKREIKLSDDFDSPVKGPLCKSVTPTKEFLKDEIKQEEETCKRISTITALGHEGKQLVNGEVSDERVAPNFKTEPIETKFYETKEESYSPSKDRNIITEGNGTESLNSVITSMKTGELEKETAPLRKDADSSISVLEIHSQKAQIEEPDPPEMETSLDSSEMAKDLSSKTALSSTESCTMKGEEKSPKTKKDKRPPILECLEKLEKSKKTFLDKDAQRLSPIPEEVPKSTLESEKPGSPEAAETSPPSNIIDHCEKLASEKEVVECQSTSTVGGQSVKKVDLETLKEDSEFTKVEMDNLDNAQTSGIEEPSETKGSMQKSKFKYKLVPEEETTASENTEITSERQKEGIKLTIRISSRKKKPDSPPKVLEPENKQEKTEKEEEKTNVGRTLRRSPRISRPTAKVAEIRDQKADKKRGEGEDEVEEESTALQKTDKKEILKKSEKDTNSKVSKVKPKGKVRWTGSRTRGRWKYSSNDESEGSGSEKSSAASEEEEEKESEEAILADDDEPCKKCGLPNHPELILLCDSCDSGYHTACLRPPLMIIPDGEWFCPPCQHKLLCEKLEEQLQDLDVALKKKERAERRKERLVYVGISIENIIPPQEPDFSEDQEEKKKDSKKSKANLLERRSTRTRKCISYRFDEFDEAIDEAIEDDIKEADGGGVGRGKDISTITGHRGKDISTILDEERKENKRPQRAAAARRKKRRRLNDLDSDSNLDEEESEDEFKISDGSQDEFVVSDENPDESEEDPPSNDDSDTDFCSRRLRRHPSRPMRQSRRLRRKTPKKKYSDDDEEEESEENSRDSESDFSDDFSDDFVETRRRRSRRNQKRQINYKEDSESDGSQKSLRRGKEIRRVHKRRLSSSESEESYLSKNSEDDELAKESKRSVRKRGRSTDEYSEADEEEEEEEGKPSRKRLHRIETDEEESCDNAHGDANQPARDSQPRVLPSEQESTKKPYRIESDEEEDFENVGKVGSPLDYSLVDLPSTNGQSPGKAIENLIGKPTEKSQTPKDNSTASASLASNGTSGGQEAGAPEEEEDELLRVTDLVDYVCNSEQL
B6: RUNX3 (protein, UniProt Q13761 1-415, looked up)
Runt-related transcription …: MRIPVDPSTSRRFTPPSPAFPCGGGGGKMGENSGALSAQAAVGPGGRARPEVRSMVDVLADHAGELVRTDSPNFLCSVLPSHWRCNKTLPVAFKVVALGDVPDGTVVTVMAGNDENYSAELRNASAVMKNQVARFNDLRFVGRSGRGKSFTLTITVFTNPTQVATYHRAIKVTVDGPREPRRHRQKLEDQTKPFPDRFGDLERLRMRVTPSTPSPRGSLSTTSHFSSQPQTPIQGTSELNPFSDPRQFDRSFPTLPTLTESRFPDPRMHYPGAMSAAFPYSATPSGTSISSLSVAGMPATSRFHHTYLPPPYPGAPQNQSGPFQANPSPYHLYYGTSSGSYQFSMVAGSSSGGDRSPTRMLASCTSSAASVAAGNLMNPSLGGQSDGVEADGSHSNSPTALSTPGRMDEAVWRPY
B7: RXRA (protein, UniProt P19793 1-462, looked up)
Retinoic acid receptor …: MDTKHFLPLDFSTQVNSSLTSPTGRGSMAAPSLHPSLGPGIGSPGQLHSPISTLSSPINGMGPPFSVISSPMGPHSMSVPTTPTLGFSTGSPQLSSPMNPVSSSEDIKPPLGLNGVLKVPAHPSGNMASFTKHICAICGDRSSGKHYGVYSCEGCKGFFKRTVRKDLTYTCRDNKDCLIDKRQRNRCQYCRYQKCLAMGMKREAVQEERQRGKDRNENEVESTSSANEDMPVERILEAELAVEPKTETYVEANMGLNPSSPNDPVTNICQAADKQLFTLVEWAKRIPHFSELPLDDQVILLRAGWNELLIASFSHRSIAVKDGILLATGLHVHRNSAHSAGVGAIFDRVLTELVSKMRDMQMDKTELGCLRAIVLFNPDSKGLSNPAEVEALREKVYASLEAYCKHKYPEQPGRFAKLLLRLPALRSIGLKCLEHLFFFKLIGDTPIDTFLMEMLEAPHQMT
B8: RXRG (protein, UniProt P48443 1-463, looked up)
Retinoic acid receptor …: MYGNYSHFMKFPAGYGGSPGHTGSTSMSPSAALSTGKPMDSHPSYTDTPVSAPRTLSAVGTPLNALGSPYRVITSAMGPPSGALAAPPGINLVAPPSSQLNVVNSVSSSEDIKPLPGLPGIGNMNYPSTSPGSLVKHICAICGDRSSGKHYGVYSCEGCKGFFKRTIRKDLIYTCRDNKDCLIDKRQRNRCQYCRYQKCLVMGMKREAVQEERQRSRERAESEAECATSGHEDMPVERILEAELAVEPKTESYGDMNMENSTNDPVTNICHAADKQLFTLVEWAKRIPHFSDLTLEDQVILLRAGWNELLIASFSHRSVSVQDGILLATGLHVHRSSAHSAGVGSIFDRVLTELVSKMKDMQMDKSELGCLRAIVLFNPDAKGLSNPSEVETLREKVYATLEAYTKQKYPEQPGRFAKLLLRLPALRSIGLKCLEHLFFFKLIGDTPIDTFLMEMLETPLQIT
B9: BBX (protein, UniProt Q8WY36 1-941, looked up)
HMG box transcription factor …: MKGSNRNKDHSAEGEGVGKRPKRKCLQWHPLLAKKLLDFSEEEEEEDEEEDIDKVQLLGADGLEQDVGETEDDESPEQRARRPMNAFLLFCKRHRSLVRQEHPRLDNRGATKILADWWAVLDPKEKQKYTDMAKEYKDAFMKANPGYKWCPTTNKPVKSPTPTVNPRKKLWAFPSDSSRDLPSPKKAKTEEMPQLNFGMADPTQMGGLSMLLLAGEHALGTPEVSSGTCRPDVSESPELRQKSPLFQFAEISSSTSHSDASTKQCQTSALFQFAEISSNTSQLGGAEPVKRCGKSALFQLAEMCLASEGMKMEESKLIKAKESDGGRIKELEKGKEEKEIKMEKTDETRLQKEAEFEKSAKENLRDSKELRNFEALQIDDIMAIKMEDPKEIRKEELEEDHKCSHFPDFSYSASSKIIISDVPSRKDHMCHPHGIMIIEDPAALNKPEKLKKKKKKSKMDRHGNDKSTPKKTCKKRQSSESDIESVIYTIEAVAKGDWGIEKLGDTPRKKVRTSSSGKGSILDAKPPKKKVKSREKKMSKEKSSDTTKESRPPDFISISASKNISGETPEGIKAEPLTPMEDALPPSLSGQAKPEDSDCHRKIETCGSRKSERSCKGALYKTLVSEGMLTSLRANVDRGKRSSGKGNSSDHEGCWNEESWTFSQSGTSGSKKFKKTKPKEDCLLGSAKLDEEFEKKFNSLPQYSPVTFDRKCVPVPRKKKKTGNVSSEPTKTSKGPFQSQKKNLFHKIVSKYKHKKEKPNVPEKGSGDKWSNKQLFLDAIHPTEAIFSEDRNTMEPVHKVKNIPSIFNTPEPTTTQEPLVGSQKRKARKTKITHLVRTADGRVSPAGGTLDDKPKEQLQRSLPKATETDCNDKCSHNTEVGETRSSTPEMPAVSAFFSLAALAEVAAMENVHRGQRSTPLTHDGQPKEMPQAPVLISCADQ
B10: RYBP (protein, UniProt Q8N488 1-228, looked up)
RING1 and YY1-binding protein: MTMGDKKSPTRPKRQAKPAADEGFWDCSVCTFRNSAEAFKCSICDVRKGTSTRKPRINSQLVAQQVAQQYATPPPPKKEKKEKVEKQDKEKPEKDKEISPSVTKKNTNKKTKPKSDILKDPPSEANSIQSANATTKTSETNHTSRPRLKNVDRSTAQQLAVTVGNVTVIITDFKEKTRSSSTSSSTVTSSAGSEQQNQSSSGSESTDKGSSRSSTPKGDMSAVNDESF

test system: HEK293FT cells transfected with TF library; experiment: Screening of TF condensates based on fluorescent puncta; type: cell-based; details: Figure 1B numerical data; TF library screen, one value per transcriptional factor
How it was run: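 HEK293FT, PEI transfection of TF library, 60 h; ±glucose 12 h; 4% PFA fix, 0.05% Triton X-100 permeabilization, 5% BSA block; anti-Flag/anti-GAL4 overnight at 4 °C, Alexa 488 secondary 1 h; high-content imaging, 50 fields/well.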

Molecule	Z score of condensed fraction
B1	-0.7099
B2	-1.108
B3	-0.4698
B4	-0.6823
B5	-1.08
B6	-0.4732
B7	-0.874
B8	0.0107
B9	1.56
B10	-0.5834
